First the molecules themselves.
B1: Fab apu02 (Fab, V domains shown)
VH: EVQLVESGGGLVQPGGSLRLSCAASGFNVSYSYMHWVRQAPGKGLEWVASISSYYSYTSYADSVKGRFTISADTSKNTAYLQMNSLRAEDTAVYYCARSYSYYSAIDYWGQGTLVTVSS
VL: DIQMTQSPSSLSASVGDRVTITCRASQSVSSAVAWYQQKPGKAPKLLIYSASSLYSGVPSRFSGSRSGTDFTLTISSLQPEDFATYYCQQSSYSSLFTFGQGTKVEIK
B2: Fab apu13 (Fab, V domains shown)
VH: EVQLVESGGGLVQPGGSLRLSCAASGFNVSYYSIHWVRQAPGKGLEWVASIYPYYSYTSYADSVKGRFTISADTSKNTAYLQMNSLRAEDTAVYYCARSYSYSYGLDYWGQGTLVTVSS
VL: DIQMTQSPSSLSASVGDRVTITCRASQSVSSAVAWYQQKPGKAPKLLIYSASSLYSGVPSRFSGSRSGTDFTLTISSLQPEDFATYYCQQYSSSYYPFTFGQGTKVEIK
B3: Fab apu11 (Fab, V domains shown)
VH: EVQLVESGGGLVQPGGSLRLSCAASGFNVSYYYIHWVRQAPGKGLEWVASISSYYGYTSYADSVKGRFTISADTSKNTAYLQMNSLRAEDTAVYYCARENYWWAIDYWGQGTLVTVSS
VL: DIQMTQSPSSLSASVGDRVTITCRASQSVSSAVAWYQQKPGKAPKLLIYSASSLYSGVPSRFSGSRSGTDFTLTISSLQPEDFATYYCQQSYYYYPITFGQGTKVEIK
B4: Fab apu07 (Fab, V domains shown)
VH: EVQLVESGGGLVQPGGSLRLSCAASGFNLSYSYIHWVRQAPGKGLEWVASISSYYGSTSYADSVKGRFTISADTSKNTAYLQMNSLRAEDTAVYYCARESFYYSPAFDYWGQGTLVTVSS
VL: DIQMTQSPSSLSASVGDRVTITCRASQSVSSAVAWYQQKPGKAPKLLIYSASSLYSGVPSRFSGSRSGTDFTLTISSLQPEDFATYYCQQSYYYSLFTFGQGTKVEIK
B5: Fab apu2.05 (Fab, V domains shown)
VH: EVQLVESGGGLVQPGGSLRLSCAASGFNISYSSMHWVRQAPGKGLEWVASIYSYYSYTSYADSVKGRFTISADTSKNTAYLQMNSLRAEDTAVYYCARSYSYRMAFDYWGQGTLVTVSS
VL: DIQMTQSPSSLSASVGDRVTITCRASQSVSSAVAWYQQKPGKAPKLLIYSASSLYSGVPSRFSGSRSGTDFTLTISSLQPEDFATYYCQQSSYSSLITFGQGTKVEIK
B6: Fab apu2.04 (Fab, V domains shown)
VH: EVQLVESGGGLVQPGGSLRLSCAASGFNISYSSMHWVRQAPGKGLEWVASIYSYYSYTSYADSVKGRFTISADTSKNTAYLQMNSLRAEDTAVYYCARSYSYSFGMDYWGQGTLVTVSS
VL: DIQMTQSPSSLSASVGDRVTITCRASQSVSSAVAWYQQKPGKAPKLLIYSASSLYSGVPSRFSGSRSGTDFTLTISSLQPEDFATYYCQQSSYSSLITFGQGTKVEIK
B7: Fab apu2.02 (Fab, V domains shown)
VH: EVQLVESGGGLVQPGGSLRLSCAASGFNIFYGGIHWVRQAPGKGLEWVASIYSYYSYTSYADSVKGRFTISADTSKNTAYLQMNSLRAEDTAVYYCARSYSYYSAMDYWGQGTLVTVSS
VL: DIQMTQSPSSLSASVGDRVTITCRASQSVSSAVAWYQQKPGKAPKLLIYSASSLYSGVPSRFSGSRSGTDFTLTISSLQPEDFATYYCQQSSYSSLITFGQGTKVEIK
B8: Fab apu2.10 (Fab, V domains shown)
VH: EVQLVESGGGLVQPGGSLRLSCAASGFNISYSSMHWVRQAPGKGLEWVASIYSYYSYTSYADSVKGRFTISADTSKNTAYLQMNSLRAEDTAVYYCARSYSYFLAMDYWGQGTLVTVSS
VL: DIQMTQSPSSLSASVGDRVTITCRASQSVSSAVAWYQQKPGKAPKLLIYSASSLYSGVPSRFSGSRSGTDFTLTISSLQPEDFATYYCQQSSYSSLITFGQGTKVEIK
B9: Fab apu2.06 (Fab, V domains shown)
VH: EVQLVESGGGLVQPGGSLRLSCAASGFNISYSSMHWVRQAPGKGLEWVASIYSYYSYTSYADSVKGRFTISADTSKNTAYLQMNSLRAEDTAVYYCARGYSWFNAIDYWGQGTLVTVSS
VL: DIQMTQSPSSLSASVGDRVTITCRASQSVSSAVAWYQQKPGKAPKLLIYSASSLYSGVPSRFSGSRSGTDFTLTISSLQPEDFATYYCQQSSYSSLITFGQGTKVEIK
B10: Fab apu2.08 (Fab, V domains shown)
VH: EVQLVESGGGLVQPGGSLRLSCAASGFNISYSSMHWVRQAPGKGLEWVASIYSYYSYTSYADSVKGRFTISADTSKNTAYLQMNSLRAEDTAVYYCARSYSYSVGMDYWGQGTLVTVSS
VL: DIQMTQSPSSLSASVGDRVTITCRASQSVSSAVAWYQQKPGKAPKLLIYSASSLYSGVPSRFSGSRSGTDFTLTISSLQPEDFATYYCQQSSYSSLITFGQGTKVEIK
B11: Fab apu2.01 (Fab, V domains shown)
VH: EVQLVESGGGLVQPGGSLRLSCAASGFNISYSSMHWVRQAPGKGLEWVASIYSYYSYTSYADSVKGRFTISADTSKNTAYLQMNSLRAEDTAVYYCARSYSYSEALDYWGQGTLVTVSS
VL: DIQMTQSPSSLSASVGDRVTITCRASQSVSSAVAWYQQKPGKAPKLLIYSASSLYSGVPSRFSGSRSGTDFTLTISSLQPEDFATYYCQQSSYSSLITFGQGTKVEIK
B12: Fab apu2.03 (Fab, V domains shown)
VH: EVQLVESGGGLVQPGGSLRLSCAASGFNISYSSMHWVRQAPGKGLEWVASIYSYYSYTSYADSVKGRFTISADTSKNTAYLQMNSLRAEDTAVYYCARSYSYSLAFDYWGQGTLVTVSS
VL: DIQMTQSPSSLSASVGDRVTITCRASQSVSSAVAWYQQKPGKAPKLLIYSASSLYSGVPSRFSGSRSGTDFTLTISSLQPEDFATYYCQQSSYSSLITFGQGTKVEIK
B13: Fab apu2.07 (Fab, V domains shown)
VH: EVQLVESGGGLVQPGGSLRLSCAASGFNISYSSMHWVRQAPGKGLEWVASIYSYYSYTSYADSVKGRFTISADTSKNTAYLQMNSLRAEDTAVYYCARSYSYHLGMDYWGQGTLVTVSS
VL: DIQMTQSPSSLSASVGDRVTITCRASQSVSSAVAWYQQKPGKAPKLLIYSASSLYSGVPSRFSGSRSGTDFTLTISSLQPEDFATYYCQQSSYSSLITFGQGTKVEIK
B14: Fab apu2.09 (Fab, V domains shown)
VH: EVQLVESGGGLVQPGGSLRLSCAASGFNISYSSMHWVRQAPGKGLEWVASIYSYYSYTSYADSVKGRFTISADTSKNTAYLQMNSLRAEDTAVYYCARSYSYHVAFDYWGQGTLVTVSS
VL: DIQMTQSPSSLSASVGDRVTITCRASQSVSSAVAWYQQKPGKAPKLLIYSASSLYSGVPSRFSGSRSGTDFTLTISSLQPEDFATYYCQQSSYSSLITFGQGTKVEIK

The first test concerns the target T1, K48-linked diubiquitin (human, UniProt P0CG48 1-76, isopeptide bond between Lys48 of one ubiquitin and the C-terminal Gly of the other).
T1 construct: Boston Biochem
The test can be described thus: SPR Biacore, antigen immobilized. (In general: Surface plasmon resonance follows binding to a sensor surface in real time, without labels.)
For the molecule B1, binding was characterised by a dissociation constant (Kd) of 12.7 nM; the koff (as a rule, a measure of how fast the partners let go of each other) turned out to be 0.00696 s⁻¹; the association rate constant (kon) (usually the rate constant with which the complex forms) was 546000 M⁻¹ s⁻¹.

Regarding B2, binding was characterised by a dissociation constant (Kd) of 139 nM, the koff was found to be 0.016 s⁻¹ and the kon came to 115000 M⁻¹ s⁻¹.

Consider B3, for which the Kd – broadly, the concentration at which binding is half-saturated – amounted to 19.6 nM; the dissociation rate constant (koff) amounted to 0.0177 s⁻¹; the kon is 904000 M⁻¹ s⁻¹.

B4 registered a Kd of 9.49 nM, a koff of 0.00993 s⁻¹ and a kon of 1.05e+06 M⁻¹ s⁻¹.

The target of another test is T1, K48-linked diubiquitin. Put plainly: SPR Biacore, antigen immobilized. This is another data set of the same source.
B5 returned a Kd of 5.06 nM, a koff of 0.00609 s⁻¹ and a kon of 1.2e+06 M⁻¹ s⁻¹.

Consider B6, for which binding was put at a Kd of 15.1 nM, the dissociation rate constant (koff) is 0.00939 s⁻¹ and the kon is 622000 M⁻¹ s⁻¹.

B7: the dissociation constant Kd was 9.16 nM, the koff is 0.0101 s⁻¹ and the kon is 1.11e+06 M⁻¹ s⁻¹.

For B8, the Kd was 1.21 nM, the koff is 0.00399 s⁻¹ and the kon was 3.28e+06 M⁻¹ s⁻¹.

Take B9: the Kd is 1.87 nM, the koff came out at 0.0024 s⁻¹ and the kon worked out at 1.28e+06 M⁻¹ s⁻¹.

B10 showed a Kd of 5.76 nM, a koff of 0.00721 s⁻¹ and a kon of 1.25e+06 M⁻¹ s⁻¹.

For the molecule B11, binding was characterised by a dissociation constant (Kd) of 23.5 nM, the koff was found to be 0.0149 s⁻¹ and the kon stood at 633000 M⁻¹ s⁻¹.

On to B12, for which the affinity, expressed as Kd, was 3.07 nM; the koff was 0.00266 s⁻¹; the kon was determined as 867000 M⁻¹ s⁻¹.

With B13, the affinity, expressed as Kd, was 1.18 nM; the koff was found to be 0.00318 s⁻¹; the kon came out at 2.7e+06 M⁻¹ s⁻¹.

B14 gave a Kd of 6.69 nM, a koff of 0.00478 s⁻¹ and a kon of 715000 M⁻¹ s⁻¹.

These data come from patent publication US20070218069A1 (published 2007).
